Laboratory results published in patent publication US20140323349A1, “COMPOSITIONS AND METHODS FOR MONITORING AND DETECTING CANCEROUS CONDITIONS” (PHIGENIX, INC., priority 2011, published 2014).

Experiments:
Format in all cases: cell-based, human
LNCaP cells [1] = test: MTT cell viability assay; settings: DEFB1 induction 24-72 h
Experimental: Reactions were performed three times in triplicate.
DU145, PC3 and LNCaP cells (1×10^5) were transfected with 0.5 μg of the PAX2 siRNA pool or control siRNA pool using Codebreaker transfection reagent according to the manufacturer's protocol (Promega). Next, cell suspensions were diluted and seeded onto a 96-well plate at 1-5×10^3 cells per well and allowed to grow for 2-, 4- or 6 days. After culture, cell viability was determined by measuring the conversion of 3-[4,5-dimethylthiazol-2yl]-2,5 diphenyl tetrazolium bromide, MTT (Promega), to a colored formazan product. Absorbance was read at 540 nm on a scanning multiwell spectrophotometer.
(§1) To examine the effects of hBD-1 on cell growth, metabolic 3-[4,5-dimethylthiazol-2yl]-2,5-diphenyl tetrazolium bromide (MTT) assay was performed. DU145, LNCaP, PC3 and PC3/AR+ cells co-transfected with pvgRXR plasmid and pIND/hBD-1 construct or control pvgRXR plasmid were seeded onto a 96-well plate at 1-5×10^3 cells per well. Twenty-four hours after seeding, fresh growth medium was added containing 10 μM Pon A daily to induce hBD-1 expression for 24, 48 and 72 h after which the MTT assay was performed according to the manufacturer's instructions (Promega). Reactions were performed three times in triplicate.

PC3/AR+ cells = test: MTT cell viability assay; settings: PC3/AR+ versus PC3
Experimental: as §1

DU145 cells [2] = test: Annexin V-FITC/PI flow cytometry
Experimental: (§2) The remaining attached cells were harvested by trypsinization and combined with the detached cells and PBS. The cells were then pelleted at 4° C. (500×g) for 5 min, washed twice in PBS, and resuspended in 100 ul of 1× Annexin binding buffer (0.1 M Hepes/NaOH at pH 7.4, 1.4 M NaCl, 25 mM CaCl2) containing 5 μl of Annexin V-FITC and 5 μl of PI. The cells were incubated at room temperature (RT) for 15 min. in the dark, then diluted with 400 μl of 1× Annexin binding buffer and analyzed by FACscan (Becton Dickinson, San Jose, Calif.). All reactions were performed three times.
(§3) PC3 and DU145 cells transfected with the hBD-1 expression system were grown in 60-mm dishes and induced for 12, 24, and 48 h with 10 μM Pon A. The cells were harvested and analyzed by flow cytometry as described in Example 1.

PC3 cells [3] = test: Annexin V-FITC/PI flow cytometry
Experimental: as §2, §3

active caspases = test: Pan-caspase detection (FAM-VAD-FMK, confocal)
Experimental: Detection of caspase activity in the prostate cancer cell lines was performed using APO LOGIX™ Carboxyfluorescin Caspase detection kit (Cell Technology, Mountain View, Calif.). Active caspases were detected through the use of a FAM-VAD-FMK inhibitor that irreversibly binds to active caspases. […] Next, 10 μl of a 30× working dilution of carboxyfluorescein labeled peptide fluoromethyl ketone (FAM-VAD-FMK) was added to 300 μl of media and added to each 35 mm dish. Cells were then incubated for 1 hour at 37° C. under 5% CO2. Then, the medium was aspirated and the cells were washed twice with 2 ml of a 1× Working dilution Wash Buffer. Cells were viewed under differential interference contrast (DIC) or under laser excitation at 488 nm. The fluorescent signal was analyzed using a confocal microscope (Zeiss LSM 5 Pascal) and a 63×DIC oil lens with a Vario 2 RGB Laser Scanning Module.

DU145 cells [4] = test: AO/EtBr membrane integrity staining
Experimental: (§4) Acridine orange (AO)/ethidium bromide (EtBr) dual staining was performed to identify changes in cell membrane integrity, as well as apoptotic cells by staining the condensed chromatin. AO stains viable cells as well as early apoptotic cells, whereas EtBr stains late stage apoptotic cells that have lost […]. Briefly, cells were seeded into 2 chamber culture slides (BD Falcon, USA). […] In order to determine the effect of PAX2 inhibition on membrane integrity, separate culture slides containing DU145, PC3 and LNCaP were treated with PAX2 siRNA and incubated for 4 days. Following this, cells were washed once with PBS and stained with 2 ml of a mixture (1:1) of AO (Sigma, USA) and EtBr (Promega, USA) (5 ug/ml) solution for 5 min. Following staining, the cells were again washed with PBS. Fluorescence was viewed by a Zeiss LSM 5 Pascal Vario 2 Laser Scanning Confocal Microscope (Carl Zeiss Jena, Germany). The excitation color wheel contain BS505-530 (green) and LP560 (red) filter blocks which allowed for the separation of emitted green light from AO into the green channel and red light from EtBr into the red channel. […] The excitation was provided by a Kr/Ar mixed gas laser at wavelengths of […]. Slides were analyzed under 40× magnification and digital images were stored as uncompressed TIFF files and exported into Photoshop CS software (Adobe Systems, San Jose, Calif.) for image processing and hard copy presentation.
(§5) Acridine orange (AO)/ethidium bromide (EtBr) dual staining was performed to identify changes in cell membrane integrity, as well as apoptotic cells by staining the condensed chromatin. AO stains viable cells and early apoptotic cells, whereas EtBr stains late stage apoptotic cells that have compromised membranes. Briefly, PC3, DU145 and LNCaP cells were seeded into 2-chamber culture slides (BD Falcon). Cells transfected with empty plasmid or hBD-1 plasmid were induced for 24 or 48 h with media containing 10 μM Pon A, while control cells received fresh growth media at each time point. After induction, cells were washed once with PBS and stained with 2 ml of a mixture (1:1) of AO (Sigma, St. Louis, Mo.) and EtBr (Promega) (5 μg/ml) solution for 5 min and were again washed with PBS.
(§6) Fluorescence was viewed by a Zeiss LSM 5 Pascal Vario 2 Laser Scanning Confocal Microscope (Carl Zeiss). The excitation color wheel contains BS505-530 (green) and LP560 (red) filter blocks which allowed for the separation of emitted green light from AO into the green channel and red light from EtBr into the red channel. The laser power output and gain control settings within each individual experiment were identical between control and hBD-1 induced cells. The excitation was provided by a Kr/Ar mixed gas laser at wavelengths of […]. Slides were analyzed under 40× magnification and digital images were stored as uncompressed TIFF files and exported into Photoshop CS software (Adobe Systems) for image processing and hard copy presentation.

LNCaP cells [5] = test: AO/EtBr membrane integrity staining; settings: 48 h hBD-1 induction
Experimental: as §4, §5, §6

PC3 cells [6] = test: AO/EtBr membrane integrity staining
Experimental: as §4, §5, §6

DU145 cells [7] = test: Phase contrast microscopy of cell growth; settings: DU145, 48 h DEFB1 induction
Experimental: (§7) Cell morphology was analyzed by phase contrast microscopy. […] The following day plasmid-containing cells were induced for a period of 48 h with media containing 10 μM Ponasterone A, while control cells received fresh media. The cells were then viewed under an inverted Zeiss IM 35 microscope (Carl Zeiss, Germany). Phase contrast pictures of a field of cells were obtained using the SPOT Insight Mosaic 4.2 camera (Diagnostic Instruments, USA). Cells were examined by phase contrast microscopy under 32× magnification and digital images were stored as uncompressed TIFF files and exported into Photoshop CS software (Adobe Systems, San Jose, Calif.) for image processing and hard copy presentation.
(§8) The effect of PAX2 knock-down on cell growth was analyzed by phase contrast microscopy as described in Example 1.

LNCaP cells [8] = test: Phase contrast microscopy of cell growth; settings: 48 h DEFB1 induction
Experimental: as §7, §8

PC3 cells [9] = test: Phase contrast microscopy of cell growth; settings: PC3, 48 h DEFB1 induction
Experimental: as §7, §8

- caspase activity (green staining) (active caspases; DU145, 24 h DEFB1 induction): green staining
- caspase activity (green staining) (active caspases; LNCaP, 24 h DEFB1 induction): no green staining
- caspase activity (green staining) (active caspases; PC3, 24 h DEFB1 induction): green staining
B1: DEFB1: human β-defensin-1 (SEQ ID NO:63), expressed in cells from pIND/DEFB1 on Ponasterone A induction (protein, listed as Homo sapiens)
chain: MRTSYLLLFTLCLLLSEMASGGNFLTGLGHRSDHYNCVSSGGQCLYSACPIFTKIQGTCYRGKAKCCK
- effect on cell viability (LNCaP cells [1]): no significant effect
- hBD-1 cytotoxicity with ectopic AR expression (PC3/AR+ cells): no difference between PC3/AR+ and PC3 cells
- number of apoptotic cells (DU145 cells [2]; DU145, 12 h DEFB1 induction): 12%
- number of apoptotic cells (DU145 cells [2]; DU145, 24 h DEFB1 induction): 34%
- number of apoptotic cells (DU145 cells [2]; DU145, 48 h DEFB1 induction): 59%
- number of apoptotic cells (PC3 cells [3]; PC3, 12 h DEFB1 induction): 10%
- number of apoptotic cells (PC3 cells [3]; PC3, 24 h DEFB1 induction): 20%
- membrane integrity (AO/EtBr) (DU145 cells [4]; DU145, 24 h DEFB1 induction): accumulation of EtBr in the cytoplasm
- membrane integrity (AO/EtBr) (DU145 cells [4]; DU145, 48 h DEFB1 induction): condensed nuclei and appeared yellow
- membrane integrity (AO/EtBr) (LNCaP cells [5]): no observable alterations to membrane integrity
- membrane integrity (AO/EtBr) (PC3 cells [6]; PC3, 24 h DEFB1 induction): accumulation of EtBr in the cytoplasm
- membrane integrity (AO/EtBr) (PC3 cells [6]; PC3, 48 h DEFB1 induction): condensed nuclei and appeared yellow
- cell number (DU145 cells [7]): significant reduction in cell number
- cell proliferation (LNCaP cells [8]): no effect on cell proliferation
- cell number (PC3 cells [9]): significant reduction in cell number
